Source: patent US20190367616A1

Columns and labels:
[1] = molecular target: cynomolgus PD-1 ECD (Acro Biosystems cat. no. PD1-05223) (cynomolgus) (UniProt B0LAJ3); test: SPR, antibody on sensor, monomeric PD-1 ECD in solution
[2] = molecular target: human PD-1 expressed on CHO-S cells (human) (UniProt Q15116); test: flow cytometry PD-L1 blocking assay on CHO-S cells transiently expressing human PD-1; non-specific control antibody; ligand R-PE PD-L1-Fc (16.4 nM final)
Sequence of human PD-1 expressed on CHO-S cells (human) (Q15116 25-288): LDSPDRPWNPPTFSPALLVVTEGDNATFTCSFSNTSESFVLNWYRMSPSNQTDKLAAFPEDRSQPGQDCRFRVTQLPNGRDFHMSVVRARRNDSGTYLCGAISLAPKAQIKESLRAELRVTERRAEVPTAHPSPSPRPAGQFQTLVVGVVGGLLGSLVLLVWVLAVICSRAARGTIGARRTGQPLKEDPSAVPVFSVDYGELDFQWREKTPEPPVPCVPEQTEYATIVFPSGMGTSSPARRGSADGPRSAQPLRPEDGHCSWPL

Sequence of cynomolgus PD-1 ECD (Acro Biosystems cat. no. PD1-05223) (cynomolgus) (B0LAJ3 entry or part of it limits assumed): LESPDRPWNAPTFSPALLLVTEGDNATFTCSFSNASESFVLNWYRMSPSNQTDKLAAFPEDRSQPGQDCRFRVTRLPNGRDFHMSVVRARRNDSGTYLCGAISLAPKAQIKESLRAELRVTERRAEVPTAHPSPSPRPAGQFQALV

Kd [1] [nM]	% of cells hu IgG binding negative / PD-L1 binding negative (lower left quadrant) [2] [%]	% of cells hu IgG binding negative / PD-L1 binding positive (lower right quadrant) [2] [%]	% of cells hu IgG binding positive / PD-L1 binding negative (upper left quadrant, 'blocking') [2] [%]	Substance
3.6				pembrolizumab/Keytruda (antibody)
1.5				nivolumab analogue (antibody)
	66.5	32.6	0.28	control mAb (antibody)
